Results taken from PMC9054013 (2022).
Each block holds one binder with its values, some of them ahead of it.

How the values were obtained:
Test in all cases: ITC
FCHO2-N1+N2 EEK mutant = FCHO2-N1+N2 EEK mutant (human, UniProt Q0JRZ9-1 314-394, E320S | E321S | K326S)
FCHO2-N1+N2 E336A+F339S = FCHO2-N1+N2 E336A+F339S (human, UniProt Q0JRZ9-1 314-394, E336A | F339S)
[1] = biological target: AP2 α-appendage (residues 695 to 938) (UniProt P17427 695-938)
Sequence of AP2 α-appendage (residues 695 to 938) (P17427 695-938): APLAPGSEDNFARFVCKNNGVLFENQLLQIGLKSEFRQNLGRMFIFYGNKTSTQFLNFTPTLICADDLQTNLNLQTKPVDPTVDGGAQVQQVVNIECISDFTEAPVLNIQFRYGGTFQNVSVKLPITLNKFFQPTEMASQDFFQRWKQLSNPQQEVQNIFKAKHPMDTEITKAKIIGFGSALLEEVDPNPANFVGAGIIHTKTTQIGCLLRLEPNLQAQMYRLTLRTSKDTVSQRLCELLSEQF

Kd (FCHO2-N1+N2 EEK mutant): 110 µM
Kd (FCHO2-N1+N2 E336A+F339S): 55 µM
B1: Cμ2 (μ2 residues 160 to 435) (domain or fragment)
chain: GWRREGIKYRRNELFLDVLESVNLLMSPQGQVLSAHVSGRVVMKSYLSGMPECKFGMNDKIVIEKQGKGTADETSKSGKQSIAIDDCTFHQCVRLSKFDSERSISFIPPDGEFELMRYRTTKDIILPFRVIPLVREVGRTKLEVKVVIKSNFKPSLLAQKIEVRIPTPLNTSGVQVICMKGKAKYKASENAIVWKIKRMAGMKESQISAEIELLPTNDKKKWARPPISMNFEVPFAPSGLKVRYLKVFEPKLNYSDHDVIKWVRYIGRSGIYETRC

Kd [1]: 44 µM
B2: FCHO1 C peptide (residues 426 to 448) (peptide)
chain: QSEEQVSKNLFGPPLESAFDHED
